No end group written: not given here. *: point of attachment. Biotin = O=C1N[C@H]2[C@H](CS[C@H]2CCCCC(=O)*)N1
B1: peptide version of romiplostim (two copies of IEGPTLRQWLAARA connected by a GG linker) (peptide)
peptide: Biotin-IEGPTLRQWLAARAGGIEGPTLRQWLAARA
notes: two copies of the TpoR agonist peptide joined by GG; Not the Fc fusion drug itself; The biotin is stated for the peptides coupled to streptavidin chips; also called romiplostim peptide; dimeric romiplostim peptide; source: synthetic peptide
B2: monomeric version of the romiplostim peptide (peptide)
peptide: Biotin-IEGPTLRQWLAARA
notes: TpoR agonist peptide motif of romiplostim; also called monomeric-romiplostim; monomeric version of the peptide; source: synthetic peptide

Experiments:
[1] = target: murine TpoR ectodomain, monomeric (TpoR_(1-479)) (mouse) (UniProt Q08351); assay: SPR; high concentrations of the Tpo F162E mutant, up to 10 µM; which TpoR form and which partner was immobilised is not stated
[2] = target: murine TpoR ectodomain, monomeric (TpoR_(1-479)) (mouse) (UniProt Q08351)
[3] = target: T1, murine TpoR ectodomain, monomeric (TpoR_(1-479)) (mouse, UniProt Q08351 26-479, N-linked glycans at N117, N178, N349; tryptophan mannosylation (W465, W468)); assay: SPR; TpoR (monomeric, dimeric or mutants) as analyte over N-terminally biotinylated romiplostim peptides on streptavidin chips; HBS-EP; two-fold dilution series, highest 100 nM; details: both partners purified
T1 construct: signal peptide in the construct; Thrombopoietin receptor (c-Mpl), mouse, residues 1-479, followed by a TEV cleavage site and the Fc domain of hIgG1; Eluted from Protein G resin by TEV cleavage; residues of the TEV site may remain at the C-terminus; also called murine TpoR (monomeric); source: Expi293F cells, transiently transfected, secreted; purified (Protein G Sepharose, TEV elution, Superdex …)
T1 sequence (looked up): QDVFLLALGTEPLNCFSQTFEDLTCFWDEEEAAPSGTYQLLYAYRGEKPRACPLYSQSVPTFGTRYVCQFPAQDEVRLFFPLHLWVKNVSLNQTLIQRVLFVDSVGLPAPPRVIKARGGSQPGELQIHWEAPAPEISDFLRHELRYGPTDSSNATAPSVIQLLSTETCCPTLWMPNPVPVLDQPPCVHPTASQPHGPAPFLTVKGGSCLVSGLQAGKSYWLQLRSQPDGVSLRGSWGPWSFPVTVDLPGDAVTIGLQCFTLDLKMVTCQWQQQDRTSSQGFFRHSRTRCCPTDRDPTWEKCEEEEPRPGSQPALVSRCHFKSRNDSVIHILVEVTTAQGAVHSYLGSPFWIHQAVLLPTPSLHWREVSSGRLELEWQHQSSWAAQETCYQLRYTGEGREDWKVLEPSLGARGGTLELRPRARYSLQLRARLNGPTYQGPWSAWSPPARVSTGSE

[4] = target: T2, murine TpoR ectodomain, monomeric (TpoR_(1-479)) (mouse, UniProt Q08351 26-479, N-linked glycans at N117, N178, N349; tryptophan mannosylation (W465, W468)); assay: SPR; TpoR over immobilised romiplostim peptide
T2 chain: T1 sequence (looked up)

[5] = target: T2, murine TpoR ectodomain, monomeric …; assay: SPR; TpoR over immobilised romiplostim peptide

Molecule | ability to induce differentiation of M1(TpoR) cells, fold decrease relative to the WT [2] [fold] | binding result [3] | other results
murine Tpo F162E (site I mutant) (from UniProt P40226 22-356) (ligand) | – | – | Kd [1]: > 10000 nM
murine Tpo D29E (site II mutant) (from UniProt P40226 22-356) (ligand) | 100 | – | –
murine Tpo D29Y (site II mutant) (from UniProt P40226 22-356) (ligand) | 100 | – | –
B1 | – | binds | Kd [4]: 71 nM; koff [5]: 0.017 s⁻¹
B2 | – | binds | –
